# Experimental data: patent US20220406376A1 (MacroGenics, published 2022)
# Residue numbers refer to the chain shown, from its start.
# B1: hHER2 MAB-1 (1.2) (antibody, V domains shown)
# VH: QVQLVQSGAEVKKPGASVKVSCKASGYTFTNYGMNWVRQAPGQGLEWMGWINTNIGEPTYTEEFKGRVTMTRDTSISTAYMELSRLRSDDTAVYYCARDDGYGNRVSYWGQGTLVTVSS
# VL: DIQMTQSPSSLSASVGDRVTITCKASQDINTYLSWFQQKPGKAPKTLIYRANRLVEGVPSRFSGSGSGTDFTLTISSLQPEDFATYYCLQHDEFPWTFGQGTKLEIK
# B2: hHER2 MAB-1 (1.3) (antibody, V domains shown)
# VH: B1 VH
# VL: B1 VL with N30S, T31N, V55Q, E56S
# B3: HER2 MAB-1 (antibody, V domains shown)
# VH: EVQLQESGPELKKPGETVKISCKASGYTFTNYGMNWVKQAPGKGLKWMGWINTNIGEPTYTEEFKGRFAFSLGTSASTAFLQINNLKNEDTATYFCARDDGYGNRVSYWGQGTLVTVSA
# VL: DILMTQSPLSMYTSLGERVTITCKASQDINSYLSWFQQKPGKSPKTLIYRANRLVDGVPSRFSGSGSGQDYSLTISSLEYEDMGIYYCLQHDEFPWTFGGGTKLEIK
# notes: also called 8H11
# B4: DART-C (bispecific antibody)
# chain 1: not shown
# chain 2: DIQMTQSPSSLSASVGDRVTITCKASQDISNYLSWFQQKPGKAPKTLIYRANRLQSGVPSRFSGSGSGTDFTLTISSLQPEDFATYYCLQHDEFPWTFGQGTKLEIKGGGSGGGGQVQLVQSGAEVKKPGASVKVSCKASGYTFTSYWINWVKQAPGQGLEWIGNIYPSDSYTNYNQKFKDKATITADKSTSTAYMELSSLRSEDTAVYYCTRDYGSSYSFDYWGQGTTVTVSSGGCGGGKVAACKEKVAALKEKVAALKEKVAALKE
# B5: TRIDENT-2 (other)
# chain 1: DIQMTQSPSTLSASVGDRVTITCRASQSVGYMHWYQQKPGKAPKLLIYDTSKLASGVPSRFSGSGSGTEFTLTISSLQPDDFATYYCFQGSGYPFTFGGGTKLEIKGGGSGGGGEVKLDETGGGLVQPGRPMKLSCVASGFTFSDYWMNWVRQSPEKGLEWVAQIRNKPYNYETYYSDSVKGRFTISRDDSKSSVYLQMNNLRVEDMGIYYCTGSYYGMDYWGQGTSVTVSSASTKGEVAACEKEVAALEKEVAALEKEVAALEKGGGDKTHTCPPCPAPEAAGGPSVFLFPPKPKDTLMISRTPEVTCVVVDVSHEDPEVKFNWYVDGVEVHNAKTKPREEQYNSTYRVVSVLTVLHQDWLNGKEYKCKVSNKALPAPIEKTISKAKGQPREPQVYTLPPSREEMTKNQVSLWCLVKGFYPSDIAVEWESNGQPENNYKTTPPVLDSDGSFFLYSKLTVDKSRWQQGNVFSCSVMHEALHNHYTQKSLSLSPGK
# chain 2: DVVMTQTPFSLPVSLGDQASISCRSSQSLVHSNGNTYLRWYLQKPGQSPKVLIYKVSNRFSGVPDRFSGSGSGTDFTLKISRVEAEDLGVYFCSQSTHVPWTFGGGTKLEIKGGGSGGGGQVTLRESGPALVKPTQTLTLTCTFSGFSLSTSGMSVGWIRQPPGKALEWLADIWWDDKKDYNPSLKSRLTISKDTSKNQVVLKVTNMDPADTATYYCARSMITNWYFDVWGAGTTVTVSSASTKGKVAACKEKVAALKEKVAALKEKVAALKE
# heavy: QVQLVQSGAEVKKPGASVKVSCKASGYTFTNYGMNWVRQAPGQGLEWMGWINTNIGEPTYTEEFKGRVTMTRDTSISTAYMELSRLRSDDTAVYYCARDDGYGNRVSYWGQGTLVTVSSASTKGPSVFPLAPSSKSTSGGTAALGCLVKDYFPEPVTVSWNSGALTSGVHTFPAVLQSSGLYSLSSVVTVPSSSLGTQTYICNVNHKPSNTKVDKRVEPKSCDKTHTCPPCPAPEAAGGPSVFLFPPKPKDTLMISRTPEVTCVVVDVSHEDPEVKFNWYVDGVEVHNAKTKPREEQYNSTYRVVSVLTVLHQDWLNGKEYKCKVSNKALPAPIEKTISKAKGQPREPQVYTLPPSREEMTKNQVSLSCAVKGFYPSDIAVEWESNGQPENNYKTTPPVLDSDGSFFLVSKLTVDKSRWQQGNVFSCSVMHEALHNRYTQKSLSLSPGK
# light: DIQMTQSPSSLSASVGDRVTITCKASQDISNYLSWFQQKPGKAPKTLIYRANRLQSGVPSRFSGSGSGTDFTLTISSLQPEDFATYYCLQHDEFPWTFGQGTKLEIKRTVAAPSVFIFPPSDEQLKSGTASVVCLLNNFYPREAKVQWKVDNALQSGNSQESVTEQDSKDSTYSLSSTLTLSKADYEKHKVYACEVTHQGLSSPVTKSFNRGEC
# notes: also called RSV×FITC×HER2 control molecule; TA×FITC×RSV control molecule
# B6: hCD137 MAB-3 (1E.9) (antibody, V domains shown)
# VH: QVQLVQSGAEVKKPGASVKVSCKASGYTFTSYWINWVRQAPGQGLEWIGNIYPSDSYTNYNQKFKDKATITADKSTSTAYMELSSLRSEDTAVYYCTRDYGSAYSMSTWGQGTTVTVSS
# VL: DIQMTQSPSSLSASVGDRVTITCQASQDISNYLNWYQQKPDKTVKLLIYYTSRARSGVPSRFSGSGSGTDFTFTISSLQPEDIATYFCQQGDTLPYTFGQGTKLEIK
# B7: hCD137 MAB-3 (1G.7) (antibody, V domains shown)
# VH: B6 VH with I48A
# VL: B6 VL with V44A, A54L
# B8: hCD137 MAB-3 (1G.14) (antibody, V domains shown)
# VH: B6 VH with I48A
# VL: B6 VL with S52T
# B9: hCD137 MAB-3 (1G.4) (antibody, V domains shown)
# VH: B6 VH with I48A
# VL: B6 VL with A54L
# B10: hCD137 MAB-3 (1G.8) (antibody, V domains shown)
# VH: B6 VH with I48A
# VL: B6 VL with V44A
# B11: hCD137 MAB-3 (1E.14) (antibody, V domains shown)
# VH: B6 VH
# VL: B6 VL with S52T
# B12: hCD137 MAB-3 (1F.3) (antibody, V domains shown)
# VH: B6 VH with R38K, I48A
# VL: B6 VL with Q24R, A25P, A54L
# Assays:
# [1] = target: T1, extracellular portion of human HER2 fused to a histidine-containing peptide (human, UniProt P04626 23-652); test: SPR (BIACORE); antibody captured on anti-human Fc; huHER2 6.25-50 nM; 1:1 Langmuir
# T1 construct: extracellular domain; also called huHER2; Human HER2/neu
# Excerpt: The humanized variants were selected to have improved binding affinity as compared to the parental murine antibody and as described may be further engineered to eliminate sequence liabilities (e.g., isomerization, deamidation sites) as described above. The binding affinity of several combinations of humanized VH and VL domains was examined by BIACORE®. Thus, an extracellular portion of human HER2 fused to a histidine-containing peptide (“huHER2”) was passed over a surface coated with immobilized antibody. Briefly, each test molecule was captured onto an F(ab)₂ goat-anti-human Fc-coated surface and then incubated in the presence of different concentrations (6.25 nM-50 nM) of huHER2. The kinetics of binding were determined via BIACORE® analysis binding (normalized 1:1 Langmuir binding model).
# [2] = target: T2, HER2/neu on the surface of target cells (N87, JIMT-1, MCF-7, MDA-MB231) (UniProt P04626 23-1255, limits assumed); test: flow cytometry on N87 gastric cancer cells, anti-hFc APC MFI
# T2 construct: whole, on cells
# [3] = target: T3, CD137 on the surface of cells (activated human T cells; engineered CHO cells) (human, UniProt Q07011 24-255); test: flow cytometry on activated pan T cells gated CD8, anti-hFc APC MFI
# T3 construct: whole, on cells; also called human CD137; cell surface expressed CD137
# T3 sequence (Q07011 24-255, change not shown): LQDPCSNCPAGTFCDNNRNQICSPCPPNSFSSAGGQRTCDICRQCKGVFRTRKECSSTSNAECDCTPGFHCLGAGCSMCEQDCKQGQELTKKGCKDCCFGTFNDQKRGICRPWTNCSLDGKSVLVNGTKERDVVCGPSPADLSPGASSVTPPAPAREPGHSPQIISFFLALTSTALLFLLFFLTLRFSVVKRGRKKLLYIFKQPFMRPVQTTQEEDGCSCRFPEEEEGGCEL
# [4] = target: T2, HER2/neu on the surface of target cells …; test: flow cytometry on JIMT-1 cells, anti-hFc APC MFI
# [5] = target: T2, HER2/neu on the surface of target cells …; test: flow cytometry on N87 cells, anti-hFc APC MFI
# [6] = target: T2, HER2/neu on the surface of target cells …; test: flow cytometry on MCF-7 cells, anti-hFc APC MFI
# [7] = target: T4, extracellular portion of human CD137 fused to a histidine-containing peptide (human, UniProt Q07011 24-186); test: Attana Cell A200 QCM; antibody captured by anti-human IgG Fc; soluble human CD137-His; grade relative to (1B.3)
# T4 construct: extracellular domain; also called huCD137; His-tagged soluble human CD137
binder,measurement,setting,value
B1,Kd,[1],0.45 nM
same,koff,[1],0.00028 s⁻¹
same,kon,[1],620000 M⁻¹ s⁻¹
B2,Kd,[1],0.36 nM
same,koff,[1],0.000223 s⁻¹
same,kon,[1],618000 M⁻¹ s⁻¹
B3,Kd,[1],1.27 nM
same,koff,[1],0.000654 s⁻¹
same,kon,[1],510000 M⁻¹ s⁻¹
B4,EC50 (read off the curve),[2],~0.5 nM
same,EC50 (read off the curve),[3],~0.1 nM
B5,EC50 (read off the curve),[4],~0.7 nM
same,EC50 (read off the curve),[5],~1 nM
same,EC50 (read off the curve),[6],~0.2 nM
B6,binding result,[7],binds
B7,binding result,[7],binds
B8,binding result,[7],binds
B9,binding result,[7],binds
B10,binding result,[7],binds
B11,binding result,[7],binds
B12,binding result,[7],binds
